Laboratory results reported in the supplement of paper PMC9732359.
± gives the uncertainty stated by the source.

Assay: protein stability index of a GFP-peptide fusion (yeast GPS) (PSI 1-4); higher = more stable; sorted into four equal gates, so the index is relative within each strain
Settings: doa10∆
Procedure, shortened: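 Yeast carrying a pooled library were grown to mid-log phase in leucine-free medium. Each library plasmid expresses Cherry and has a tiled 17-residue yeast protein peptide fused downstream of GFP. Cells were sorted into four equal gates by GFP/Cherry ratio, and plasmids from each gate were PCR-amplified, Illumina-sequenced and assigned to strains by barcode. Summing, across gates, the read frequency times the gate number gave each peptide's protein stability index.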

Row | Sequence | protein stability index
1 | KPLGTTRAMEYLKFREL [RPB2] | 2.49 ± 0.065

Same assay, conditions: pdr5∆

Row | Sequence | protein stability index
2 | KCTAEGIKVSLLGIFDD [RPC25] | 1.69 ± 0.088
3 | KDLFELERYYKEQADIY [ARP7] | 3.34 ± 0.083
4 | KDLQWLEFARITPMNDD [SIN4] | 3.19 ± 0.088
5 | KDQYVPEVSALDLSRSN [RPS17A] | 2.2 ± 0.1
6 | KDTPFTIYDGEAVAKYI [PRE5] | 2.97 ± 0.062
7 | KEASQEDDNNNVEKPSS [YLR335W/NUP2] | 3.22 ± 0.071
8 | KEDSTIQDSNGDVKNME [SWI3] | 3.38 ± 0.087
9 | KEEISDQKPIEHIKEGS [SWI3] | 2.82 ± 0.051
10 | KEHAPYTDELEEDVYLD [FAS2] | 3.48 ± 0.27
11 | KEHEPCIIFMDEVDAIG [RPT4] | 1.92 ± 0.059
12 | KEIKTNEYVIKTPVFTT [YMR129W/POM152] | 1.98 ± 0.056
13 | KEISARRYKLLTATPNS [POP1] | 2.45 ± 0.061
14 | KEKAPTIIFIDELDAIG [RPT5] | 2.35 ± 0.041
15 | KEKIEKLSKSATESIKN [SMC1] | 2.99 ± 0.21
16 | KEKLTVQDCRYSLASVT [POP1] | 2.62 ± 0.043
17 | KEPVALIETVRQMKDVN [RPN2] | 3.41 ± 0.067
18 | KERSIVVGRTTRSNPPF [REC8] | 2.7 ± 0.057
19 | KESIVLPTVGFDFIKDN [YOR098C/NUP1] | 2.65 ± 0.11
20 | KESPWKILMYQYNIPPE [RRP6] | 2.01 ± 0.066
21 | KETAPVIDTLAAGYGKI [RPL28] | 2.71 ± 0.12
22 | KETVEIGIVDYEAGASH [FAS1] | 2.92 ± 0.19
23 | KETWLHELSSSHTSLVK [SRB8] | 2.04 ± 0.056
24 | KFLQVMQKHGYIGEFEY [RPS22A] | 2.27 ± 0.059
25 | KFNAAPEENATEGPSDK [SNF12] | 3.58 ± 0.14
26 | KFNELVKLMKNITDYET [BRR2] | 1.21 ± 0.06
27 | KFQETLLRQKIEQCKHP [ISW2] | 1.47 ± 0.068

Row | Sequence | protein stability index
28 | KGAATGKGRQSAKAELE [PRE10] | 1.38 ± 0.079
29 | KGDLRRGFIKSEGSGSS [RPC53] | 3.37 ± 0.1
30 | KGEEAKLDSKKTVPFQV [SSN3] | 3.37 ± 0.055
31 | KGEMKGSAITGPVGKEC [RPL23A] | 2.98 ± 0.065
32 | KGIDSVVRRRFRGNISQ [RPL32] | 2.94 ± 0.26
33 | KGKTPKNAAESSYMGKH [PRP28] | 3.22 ± 0.14
34 | KGLIKVNGSPITLVEPE [RPS16A] | 3.42 ± 0.13
35 | KGLVSQQLDSFNQFVDY [RPB2] | 2.52 ± 0.1
36 | KHEEIDTKNLYVIKALQ [RPS10A] | 2.02 ± 0.078
37 | KHLWDQKSLAALKKSRS [RPC17] | 2.97 ± 0.072
38 | KIAHGTTTLAFRFQGGI [PRE2] | 3.11 ± 0.073
39 | KIDKPIRTQVNTGGESV [RGR1] | 2.4 ± 0.044
40 | KIDSHVVLSFSGLNADS [PRE6] | 1.72 ± 0.069
41 | KIHQQLLFKARLQQQQA [GAL11] | 1.26 ± 0.089
42 | KIIELMNKIFTIFKSGE [YML103C/NUP188] | 2.22 ± 0.083
43 | KILEQFEYVLYPSKTLK [FAS2] | 2.93 ± 0.069
44 | KILPTDIQLKNLFPLKP [SRP68] | 2.63 ± 0.046
45 | KINSWDQVLVKGGEQIS [YJL041W/NSP1] | 2.56 ± 0.085
46 | KIPAVEYFGGESPVDVQ [FAS1] | 3.4 ± 0.099
47 | KIRRAARDLLTRDEKDP [RPS9A] | 2.49 ± 0.065
48 | KISEGSAKPTFSFSKSE [YOR098C/NUP1] | 1.92 ± 0.17
49 | KISFNLRLKLFLYEILS [SRB8] | 1.26 ± 0.063
50 | KIVEIDRHIGCAMSGLT [PUP2] | 2.32 ± 0.091
51 | KIWSVKDGSNPRTLIGH [RPN14] | 3.01 ± 0.12
52 | KKAEKAARKAEKAKSAG [RPL24A] | 3.32 ± 0.053
53 | KKAVKELYEVDVLKVNT [RPL25] | 3.09 ± 0.073

Row | Sequence | protein stability index
54 | KKDSKPAFSFGISNGSE [YLR335W/NUP2] | 3.12 ± 0.069
55 | KKGESEKDASGKPSFVF [YOR098C/NUP1] | 2.32 ± 0.1
56 | KKINAKEKLIGWYHSGP [RPN8] | 3.13 ± 0.096
57 | KKISSFKSLIDEDLLDT [YGL172W/NUP49] | 3.21 ± 0.079
58 | KKLEITSDGALSVMCGC [RPR2] | 2.82 ± 0.054
59 | KKRFDEFMAGFNIISMT [SMC4] | 2.52 ± 0.11
60 | KKSKNGTISKTGKKNKV [SRP14] | 3.26 ± 0.089
61 | KKSKRLDKVGKKKGGKK [LRP1] | 2.43 ± 0.27
62 | KKTRIIPRHLQLAIRND [HTA1] | 2.69 ± 0.078
63 | KKVGITGKYGVRYGSSL [RPL43A] | 3.28 ± 0.051
64 | KKYSSKNKYGEINSEDY [SRP68] | 2.8 ± 0.18
65 | KKYTQNNPLLLIVDVKQ [RPN8] | 1.31 ± 0.046
66 | KLANFFSKKGNEPLSEI [YAR002W/NUP60] | 3.17 ± 0.076
67 | KLCYVLGVEDITLIDSA [RET1] | 1.73 ± 0.25
68 | KLEAEEIPSEDQNEFLL [FAS2] | 1.75 ± 0.092
69 | KLELINRYAYVLSSLMF [LRP1] | 2.31 ± 0.049
70 | KLEYPHTDVSSSLEARY [RPN3] | 3.01 ± 0.073
71 | KLFTTNELMRWPIVQKT [RPN5] | 1.77 ± 0.078
72 | KLHVAAKLPGHKSLIRS [YGL100W/SEH1] | 2.03 ± 0.13
73 | KLISAFDDLEVEELPTF [RRP42] | 2.84 ± 0.05
74 | KLKDSKKLFQKKENLTR [YML103C/NUP188] | 3.3 ± 0.1
75 | KLLDSGCENPADVFRRC [SRP72] | 1.72 ± 0.047
76 | KLLKSLKNTKYFQQTTI [PRP8] | 2.7 ± 0.085
77 | KLNDSQRKTVNSDDILS [POP1] | 1.99 ± 0.1
78 | KLNIETMRKISSETDDD [DSN1] | 2.27 ± 0.13
79 | KLNKVDKNELQQMIITR [SIR3] | 3.22 ± 0.07

Row | Sequence | protein stability index
80 | KLPLSVINVSAQRDRRY [RPS17A] | 1.77 ± 0.058
81 | KLREKVNDVELAFKKNE [MTW1] | 3.02 ± 0.13
82 | KLRETLVKIDDLSANQR [SMC1] | 3.29 ± 0.12
83 | KLSESLDTRKELWRKEQ [SMC3] | 1.75 ± 0.1
84 | KLTQKLVTAGVAAAGIT [CYT1] | 2.21 ± 0.086
85 | KLVLAARIIAAIPNPED [RPS0A] | 2.11 ± 0.11
86 | KLYDKTENDIKALQSIG [RPT4] | 2.62 ± 0.2
87 | KMDMICRNINRKHRNAQ [DIS3] | 2.5 ± 0.11
88 | KMEKKKSSSLSLESFMK [SNM1] | 3.32 ± 0.12
89 | KMPGGFTITVARKYLQT [FAS2] | 1.47 ± 0.065
90 | KNATDLQQAKLRESEIS [SMC3] | 3.15 ± 0.071
91 | KNDEVLGLLLPIAASTD [RPN1] | 2.3 ± 0.062
92 | KNDTHYLLPDDFHFSTD [BRN1] | 3.19 ± 0.074
93 | KNDTKILVLALEDLKDV [PRP8] | 1.96 ± 0.099
94 | KNEEAEIEVDEMEVDAE [RPN1] | 3.51 ± 0.11
95 | KNFENGPKKNVFYAPNV [RPC34] | 2.94 ± 0.071
96 | KNIAQCLSDYTKKISNF [YJL039C/NUP192] | 2.22 ± 0.055
97 | KNISSQLDSKLMVFNDD [YGR119C/NUP57] | 2.54 ± 0.052
98 | KNLNPASSSPSSTDFST [ECM29] | 2.81 ± 0.045
99 | KNMFEKKASKVTVDADI [ISW2] | 2.87 ± 0.059
100 | KNSSQLLNEWSHNVDEL [RPN5] | 2.81 ± 0.05
101 | KNSSVSSLMNGLGYVFE [SRB5] | 1.72 ± 0.073
102 | KPHGLAARVDIGQIIFS [RPL10] | 2.13 ± 0.037
103 | KPKNTKENLSKSSWRQE [SIR4] | 1.21 ± 0.049
104 | KPLGLDRYGNRYFWLDH [ITC1] | 3.02 ± 0.13
